Assay results published in publication PMC11111636 (EJNMMI Radiopharmacy and Chemistry, 2024).

Experiments:
U2OS.SSTR2 cells = assay: Uptake/internalization studies in U2OS.SSTR2 cells; type: cell-based, human
Protocol: Cells were seeded in 6-well plates 24 h before the experiment (7 × 10^5 cells/well). […] The membrane-bound fraction was collected by incubating cells with an acid buffer (50 mM glycine, 100 mM NaCl, pH 2.8) for 10 min at rt. The internalized fraction was determined by lysing the cells with 1 M NaOH for 5 min at rt. Both fractions were measured in a gamma counter, and data were analyzed in GraphPad Prism v9 and expressed as percentage of added dose.

[1] = In vitro stability in PBS (radio-HPLC); type: physicochemical; conditions: 37 °C; for PBS (%) intact labeled ligand: n = 1
in vitro = conditions: mouse, mouse serum, Mouse serum (%) intact labeled ligand, 37 °C, n = 1
Protocol: Stability of the radiolabeled peptide was monitored at 1, 4 and 24 h post incubation. The samples in PBS were directly analyzed by radio-HPLC without any pretreatment. However, samples in mouse serum were mixed with an equal volume of acetonitrile to precipitate the proteins. The solution was centrifuged for 10 min at 13,000 rpm and the supernatant was analyzed by radio-HPLC.

[2] = Protocol: Distribution coefficient was determined by a shake-flask method. […] The vial was vortexed vigorously and then centrifuged at 10,000 rpm for 10 min for phase separation. Samples (100 μL) of the n-octanol and aqueous phases were taken and measured in the gamma counter. LogD7.4 value was calculated by using the following equation: LogD7.4 = log [(counts in n-octanol phase)/(counts in aqueous phase)]. Measurements were performed in triplicates.
[3] = tested on: H69-xenograft Balb/c nu/nu mice; assay: Ex vivo biodistribution in H69-tumor bearing mice; conditions: for Tumor uptake lower than the tumor uptake of [111In]In-DOTA-TATE: P < 0.05
Protocol: (§1) Six-week‐old female Balb/c nu/nu‐specific mice (Janvier Labs, Le Genest‐Saint‐Isle, France) were housed in individually ventilated cages (4 mice/cage). Upon arrival, mice were acclimated for one week, with access to food and water ad libitum. Mice were subcutaneously inoculated on the right shoulder with NCI-H69 cells (5 × 10^6 cells) suspended in 100 μL of 1/3 Matrigel (Corning Inc.; Corning, NY, USA) and 2/3 Hank’s balanced salt solution (Gibco; Paisley, UK). NCI-H69 xenografts were allowed to grow for 2 weeks.
(§2) At 3 selected time points (1, 4 and 24 h; n = 4) p.i., blood was collected via retro-orbital puncture under isoflurane/O2 anesthesia, after which the mice were sacrificed via cervical dislocation. The tumor and organs of interest (heart, lungs, liver, spleen, stomach, large intestine, small intestine, pancreas, kidneys, muscle, skin, bone) were excised, washed in PBS and blotted dry. […] To determine the total injected radioactivity per animal, a calibration curve with indium-111 was established using the gamma counter. The percentage of injected dose per gram (% ID/g) was determined for each tissue and corrected for both the injected activity and % ID present at the injection site (the tail). Then, the tumor and the organs were placed in a petri dish and ex vivo optical imaging was performed with the IVIS Spectrum system (Perkin Elmer, Waltham, MA, USA) using the following settings for all measurements: FOV 19.5 cm, medium binning, f2, 60 s exposure with an excitation/emission filter of 646 nm/662 nm. Living Image version 4.5.2 software (Perkin Elmer) was used to perform data analysis by drawing regions of interest around the organ/tissue to quantify the radiant efficiency {(photons/second/cm^2/steradian)/(μW/cm^2)}.

[4] = Ex vivo biodistribution in H69-tumor bearing mice; conditions: mouse, in vivo; for tissue uptake at 4 h / tissue uptake at 1 h / tissue uptake at 24 h: n = 4; for tissue uptake at 1 h: 1 h p.i.; for tissue uptake at 24 h: 24 h p.i.
Protocol: as §1, §2

[5] = iv, 2 nmol, Uptake in Intestines

SMILES: C[C@@H](O)[C@H](NC(=O)[C@@H]1CSSC[C@H](NC(=O)[C@@H](Cc2ccccc2)NC(=O)CCC(C(=O)O)N2CCN(CC(=O)O)CCN(Cc3cccc(COCCCn4nnc5c4-c4ccccc4N(C(=O)CCCCCNC(=O)CCCCC[N+]4=C(C=CC=CC=C6N(C)c7ccc(S(=O)(=O)[O-])cc7C6(C)C)C(C)(C)c6cc(S(=O)(=O)O)ccc64)Cc4ccccc4-5)n3)CCN(CC(=O)O)CC2)C(=O)N[C@@H](Cc2ccc(O)cc2)C(=O)N[C@H](Cc2c[nH]c3ccccc23)C(=O)N[C@@H](CCCCN)C(=O)N[C@@H]([C@@H](C)O)C(=O)N1)C(=O)O (some centres unmarked) [[^111In]In-eTFC-01, metal not drawn]
- Internalized fraction of radioactivity (U2OS.SSTR2 cells; 10^-9 M, 90 min, 37 °C): 97%
- Total uptake (U2OS.SSTR2 cells; 10^-9 M, 90 min, 37 °C, % of added dose per 1,000,000 cells, n = 3): 20.87 ± 1.92 % AD
- Cell uptake with excess of unlabeled DOTA-TATE (U2OS.SSTR2 cells; 50-fold excess DOTA-TATE): almost completely blocked
- Drop of the cell uptake in presence of an excess of DOTA-TATE (U2OS.SSTR2 cells; 50-fold excess DOTA-TATE): 95%
- Degradation in PBS buffer ([1]; up to 24 h): No degradation
- PBS (%) intact labeled ligand ([1]; 1 h): 99.0%
- PBS (%) intact labeled ligand ([1]; 4 h): 99.0%
- PBS (%) intact labeled ligand ([1]; 24 h): 99.0%
- remaining at 1 h (in vitro; 1 h): 97.9%
- remaining at 4 h (in vitro; 4 h): 86%
- remaining at 24 h (in vitro; 24 h): 71%
- LogD7.4 ([2]; n-octanol/PBS pH 7.4, n = 3): negative
- logD ([2]; pH 7.4): -0.7 ± 0.06
- Tumor uptake lower than the tumor uptake of [111In]In-DOTA-TATE ([3]; 1 h p.i.): 54%
- Tumor uptake reduction by co-injection of an excess of DOTA-TATE ([3]; 4 h p.i., compared to the unblocked group): 40%
- Tumor uptake lower than the tumor uptake of [111In]In-DOTA-TATE ([3]; 24 h p.i.): 31%
- tissue uptake ([4]; 2 nmol, Tumor uptake, from 1 h to 24 h post injection): 2 to 3 %ID/g
- tissue uptake at 4 h ([4]; Uptake in Blood, 4 h block (co-injected 50 nmol DOTA-TATE)): 4.11 ± 0.16 %ID/g
- tissue uptake at 4 h ([4]; Uptake in Bones, 4 h block (co-injected 50 nmol DOTA-TATE)): 1.53 ± 0.27 %ID/g
- tissue uptake at 4 h ([4]; Uptake in Heart, 4 h block (co-injected 50 nmol DOTA-TATE)): 2.14 ± 0.46 %ID/g
- tissue uptake at 4 h ([4]; Uptake in Intestines, 4 h block (co-injected 50 nmol DOTA-TATE)): 1.48 ± 0.13 %ID/g
- tissue uptake at 4 h ([4]; Uptake in Kidneys, 4 h block (co-injected 50 nmol DOTA-TATE)): 46.6 ± 6.34 %ID/g
- tissue uptake at 4 h ([4]; Uptake in Liver, 4 h block (co-injected 50 nmol DOTA-TATE)): 10.6 ± 1.55 %ID/g
- tissue uptake at 4 h ([4]; Uptake in Lungs, 4 h block (co-injected 50 nmol DOTA-TATE)): 6.05 ± 0.59 %ID/g
- tissue uptake at 4 h ([4]; Uptake in Muscle, 4 h block (co-injected 50 nmol DOTA-TATE)): 0.67 ± 0.08 %ID/g
- tissue uptake at 4 h ([4]; Uptake in Pancreas, 4 h block (co-injected 50 nmol DOTA-TATE)): 0.95 ± 0.23 %ID/g
- tissue uptake at 4 h ([4]; Uptake in Skin, 4 h block (co-injected 50 nmol DOTA-TATE)): 3.61 ± 0.4 %ID/g
- tissue uptake at 4 h ([4]; Uptake in Spleen, 4 h block (co-injected 50 nmol DOTA-TATE)): 3.97 ± 0.9 %ID/g
- tissue uptake at 4 h ([4]; Uptake in Stomach, 4 h block (co-injected 50 nmol DOTA-TATE)): 0.43 ± 0.12 %ID/g
- tissue uptake at 4 h ([4]; Uptake in Tumor, 4 h block (co-injected 50 nmol DOTA-TATE)): 1.81 ± 0.14 %ID/g
- tissue uptake at 1 h ([4]; iv, 2 nmol, Uptake in Blood): 6.96 ± 0.68 %ID/g
- tissue uptake at 4 h ([4]; iv, 2 nmol, Uptake in Blood, 4 h p.i.): 4.7 ± 0.24 %ID/g
- tissue uptake at 24 h ([4]; iv, 2 nmol, Uptake in Blood): 0.64 ± 0.11 %ID/g
- tissue uptake at 1 h ([4]; iv, 2 nmol, Uptake in Bones): 2.29 ± 0.17 %ID/g
- tissue uptake at 4 h ([4]; iv, 2 nmol, Uptake in Bones, 4 h p.i.): 1.7 ± 0.23 %ID/g
- tissue uptake at 24 h ([4]; iv, 2 nmol, Uptake in Bones): 0.98 ± 0.21 %ID/g
- tissue uptake at 1 h ([4]; iv, 2 nmol, Uptake in Heart): 4.14 ± 0.76 %ID/g
- tissue uptake at 4 h ([4]; iv, 2 nmol, Uptake in Heart, 4 h p.i.): 2.5 ± 0.17 %ID/g
- tissue uptake at 24 h ([4]; iv, 2 nmol, Uptake in Heart): 0.74 ± 0.12 %ID/g
- tissue uptake at 1 h [4, 5]: 1.85 ± 0.24 %ID/g
- tissue uptake at 4 h ([4]; iv, 2 nmol, Uptake in Intestines, 4 h p.i.): 1.85 ± 0.24 %ID/g
- tissue uptake at 24 h [4, 5]: 0.44 ± 0.09 %ID/g
- tissue uptake at 1 h ([4]; iv, 2 nmol, Uptake in Kidneys): 33.2 ± 3.27 %ID/g
- tissue uptake at 4 h ([4]; iv, 2 nmol, Uptake in Kidneys, 4 h p.i.): 36.6 ± 2.02 %ID/g
- tissue uptake at 24 h ([4]; iv, 2 nmol, Uptake in Kidneys): 30.6 ± 5.9 %ID/g
- tissue uptake at 1 h ([4]; iv, 2 nmol, Uptake in Liver): 8.88 ± 0.9 %ID/g
- tissue uptake at 24 h ([4]; iv, 2 nmol, Uptake in Liver): 6.03 ± 1.14 %ID/g
- tissue uptake at 1 h ([4]; iv, 2 nmol, Uptake in Lungs): 8.07 ± 1.18 %ID/g
- tissue uptake at 4 h ([4]; iv, 2 nmol, Uptake in Lungs, 4 h p.i.): 7.71 ± 0.87 %ID/g
- tissue uptake at 24 h ([4]; iv, 2 nmol, Uptake in Lungs): 1.75 ± 0.19 %ID/g
- tissue uptake at 1 h ([4]; iv, 2 nmol, Uptake in Muscle): 1.07 ± 0.1 %ID/g
- tissue uptake at 4 h ([4]; iv, 2 nmol, Uptake in Muscle, 4 h p.i.): 0.73 ± 0.08 %ID/g
- tissue uptake at 24 h ([4]; iv, 2 nmol, Uptake in Muscle): 0.26 ± 0.05 %ID/g
- tissue uptake at 1 h ([4]; iv, 2 nmol, Uptake in Pancreas): 1.99 ± 0.26 %ID/g
- tissue uptake at 4 h ([4]; iv, 2 nmol, Uptake in Pancreas, 4 h p.i.): 1.28 ± 0.17 %ID/g
- tissue uptake at 24 h ([4]; iv, 2 nmol, Uptake in Pancreas): 0.64 ± 0.18 %ID/g
- tissue uptake at 1 h ([4]; iv, 2 nmol, Uptake in Skin): 5.73 ± 1.28 %ID/g
- tissue uptake at 4 h ([4]; iv, 2 nmol, Uptake in Skin, 4 h p.i.): 3.78 ± 0.35 %ID/g
- tissue uptake at 24 h ([4]; iv, 2 nmol, Uptake in Skin): 1.54 ± 0.35 %ID/g
- tissue uptake at 1 h ([4]; iv, 2 nmol, Uptake in Spleen): 5.09 ± 0.72 %ID/g
- tissue uptake at 4 h ([4]; iv, 2 nmol, Uptake in Spleen, 4 h p.i.): 3.58 ± 1.02 %ID/g
- tissue uptake at 24 h ([4]; iv, 2 nmol, Uptake in Spleen): 2.03 ± 0.43 %ID/g
- tissue uptake at 1 h ([4]; iv, 2 nmol, Uptake in Stomach): 2.66 ± 0.49 %ID/g
- tissue uptake at 4 h ([4]; iv, 2 nmol, Uptake in Stomach, 4 h p.i.): 1.41 ± 0.19 %ID/g
- tissue uptake at 24 h ([4]; iv, 2 nmol, Uptake in Stomach): 0.77 ± 0.22 %ID/g
- tissue uptake at 1 h ([4]; iv, 2 nmol, Uptake in Tumor): 2.56 ± 0.38 %ID/g
- tissue uptake at 4 h ([4]; iv, 2 nmol, Uptake in Tumor, 4 h p.i.): 3.04 ± 0.49 %ID/g
- tissue uptake at 24 h ([4]; iv, 2 nmol, Uptake in Tumor): 2.21 ± 0.31 %ID/g
